From US20110223176A1 (AbbVie / Abbott, published 2011)

Experiments:
[1] = target: T1, purified recombinant human BSG2 extracellular domain (human, UniProt P35613 22-325); assay: SPR (Biacore), mAb captured by anti-mouse Fc, BSG2 ECD injected, 25 C
T1 construct: also called Human BSG2 ECD
T1 sequence: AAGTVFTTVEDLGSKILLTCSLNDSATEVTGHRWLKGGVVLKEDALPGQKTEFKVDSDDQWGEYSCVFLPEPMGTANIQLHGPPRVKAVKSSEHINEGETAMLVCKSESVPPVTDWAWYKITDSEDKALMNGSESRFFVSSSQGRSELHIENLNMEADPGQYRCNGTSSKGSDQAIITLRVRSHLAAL
Experimental: (§1) Binding of BSG2 antibodies to a purified recombinant BSG2 extracellular domain (ECD) was determined by surface plasmon resonance-based measurements with a Biacore® instrument (either a Biacore 2000, Biacore 3000, or Biacore T100; GE Healthcare, Piscataway, N.J., US). The assay format for mAb affinity analysis was Fc-based capture via immobilized anti-Fc IgG. A standard amine coupling protocol was employed to immobilize Fc-specific IgG via primary amines to the carboxy-methyl (CM) dextran surface of CMS sensorchips. For the study of mouse anti-human BSG2 mAbs, anti-mouse Fc was used as the immobilized capture reagent. An automated protocol, available on the Biacore 2000, was used to immobilize 8000-10000RU of capture reagent in all 4 flowcells of the sensorchip. Binding was recorded as a function of time and kinetic rate constants were calculated. In this assay, on-rates as fast as 10⁷M⁻¹ s⁻¹ and off-rates as slow as 10⁻⁵ s⁻¹ can be measured.
(§2) Briefly, the CM-dextran surfaces were activated by freshly prepared 1:1 […] 3-(N,N-dimethylamino)propyl-N-ethylcarbodiimide (EDC). Then the anti-Fc IgG capture reagent (20 μg/ml in 10 mM sodium acetate, pH 4.5) was applied to the surface followed by deactivation of the surface and blocking of the residual reactive sites with 1M ethanolamine (pH 8.5). The running buffer employed was PBS-PB [1×PBS (Sigma P3813), pH 7.4, 0.005% P20 surfactant, 0.1 mg/ml BSA (Sigma-A7906)] and the assay temperature was 25° C. All reagents were diluted into running buffer to the specified concentrations. Each experimental cycle consisted of the following steps: (1) anti-BSG2 mAbs at 0.5 to 1 μg/ml were captured in flowcells 2, 3 or 4 to a level of 100-120RU. All measurements were referenced against flowcell 1 which had no captured anti-BSG2 mAb; (2) human BSG2 ECD was injected through all 4 flowcells, 240 μl at 80 μl/min. After the antigen injection, dissociation was monitored for 600 seconds at 80 μl/min; and (3) the anti-Fc capture surface was regenerated with 10 mM glycine, pH 1.5.
(§3) The BSG2 antibody binding affinities were determined by the BIACORE technology as described in Example 1.2. Table 10 represents the antibody binding kinetics against human and cynomolgus monkey BSG2 extracellular domain (ECD).

[2] = target: T2, cynomolgus monkey BSG2 extracellular domain (cynomolgus monkey); assay: as above
T2 construct: extracellular domain; also called Cynomolgus BSG2 ECD
Experimental: as §1, §2, §3

[3] = target: T3, human BSG2 (basigin isoform 2) on the cell surface (human, UniProt P35613 140-385); assay: flow cytometry (FACS) on BAF3 cells expressing human BSG2
T3 construct: Presented on stably transfected BAF3 cells or endogenously on human tumor cell lines (HepG2, MiaPaCa-2, DoHH-2); also called hBSG2; CD147
T3 sequence: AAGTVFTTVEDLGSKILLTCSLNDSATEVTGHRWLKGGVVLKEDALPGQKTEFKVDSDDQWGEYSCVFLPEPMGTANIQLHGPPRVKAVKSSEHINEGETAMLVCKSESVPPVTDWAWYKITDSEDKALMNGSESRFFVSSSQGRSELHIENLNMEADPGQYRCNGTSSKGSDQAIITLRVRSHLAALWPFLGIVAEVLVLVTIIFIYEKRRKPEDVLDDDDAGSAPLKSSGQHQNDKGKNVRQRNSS
Experimental: (§4) Stable cell lines overexpressing cell-surface BSG2 or human tumor cell lines were harvested from tissue culture flasks, washed three times and resuspended in phosphate buffered saline (PBS) containing 1% bovine serum albumin and 1 mM CaCl₂ (FACS buffer). 5×10⁵ cells were incubated with antibodies at various concentrations in FACS buffer for 60 minutes on ice. Cells were washed twice and the bound murine monoclonal antibody was detected with a goat Fab′2 anti-mouse IgM+IgG+IgA (H+L) R-phycoerythrin-conjugated antibody (Southern Biotechnology Associates, Inc., Birmingham, Ala., Catalog No. 1012-08) diluted 1:500. Following incubation on ice (4° C., 60 minutes), cells were washed three times and resuspended in FACS buffer. Fluorescence was measured using a Becton Dickinson FACSCalibur-HTS (Becton Dickinson, San Jose, Calif., US). Data were analyzed using Graphpad Prism software and EC₅₀ values were reported as the concentration of antibody to achieve 50% of maximal BSG2 antibodies binding to BSG2 expressing cells.

[4] = target: T3, human BSG2 (basigin isoform 2) on the …; assay: receptor binding assay, Eu-labeled antibody on cells expressing human BSG2
Experimental: Cell lines expressing BSG2 were harvested and washed once in assay buffer (PBS, 0.1% BSA, 0.02% Na Azide, 10 mM EDTA) and resuspended to 5×10⁶ cells per mL. Serial 1:2 dilutions of ⁺³Eu-labeled anti-BSG2 antibody stock in assay buffer were made for final concentrations ranging from 1.6×10⁻⁸-7.7×10⁻¹² M, and a 4 mg/mL solution of unlabeled anti-BSG2 antibody was also prepared. To 96 well round bottom plates, 25 μl of ⁺³Eu-labeled antibody dilutions were added to 25 μl buffer (total counts), or 25 μl of unlabeled antibody were added to 25 μl buffer (background counts). 50 μl of cells at 2.5×10⁵ cells per well were then added to all samples, mixed gently, and incubated on ice for 1 hour. Cell bound antibody was then separated from unbound antibody by transferring 20 μL of the reaction mixture to Acrowell 96 well filter plates (Pall PN 5020), centrifuged for 5 min (2200 rpm), washed 3× with 150 μL cold assay buffer, and centrifuged for 5 min. Signal was determined by incubating samples with 150 μL/well of enhancement buffer and read using Envision. The specific counts were determined by subtracting the background counts (cells+labeled antibody+excess cold antibody) from the corresponding total counts (cells+labeled antibody) for each antibody concentration. The labeled antibody concentration versus total counts was analyzed using Graphpad Prism 4 to calculate Kd and Bmax values.
(§5) BSG2 antibody binding activities against whole cells expressing human or cynomolgus monkey BSG2 were assessed by ECL using MSD technology (described in Example 1.3) and the receptor binding assay (described in Example 1.4) and are shown in Table 11.

[5] = target: T3, human BSG2 (basigin isoform 2) on the …; assay: flow cytometry (FACS) on HepG2 hepatocellular carcinoma cells (cell-surface BSG2)
Experimental: as §4

[6] = target: T4, cynomolgus monkey BSG2 on the cell surface (cynomolgus monkey); assay: flow cytometry (FACS) on BAF3 cells expressing cynomolgus BSG2
T4 construct: whole, on cells; also called BAF3-cyno BSG2; Cyno BSG2
Experimental: as §4

[7] = target: T4, cynomolgus monkey BSG2 on the cell …; assay: cell-based ECL (MSD) binding on whole cells expressing cynomolgus BSG2
Experimental: Cells were plated at 25,000 cells/well in 25 μl PBS using 96 well MSD high binding plates (MSD, catalogue no. L11XB-3), and incubated at 37° C. for 1 hour. 25 μl/well of blocking solution (30% serum in PBS) was added to the plates for 30 minutes at room temperature with mild agitation. Plates were then incubated with 25 μl/well of BSG2 antibodies (10 μg/ml) diluted in assay buffer (10% serum in PBS) for 1 hour at room temperature with mild agitation, and then washed 3× with PBS. Goat anti-mouse or anti-human IgG sulfotag was added at 1 μg/ml for 1 hour with mild agitation, and plates were washed 3× with PBS. After the final wash, plates were incubated with 2×MSD surfactant-free read buffer (catalogue no. R92TD-2) and the signal was detected on a MSD SECTOR Imager 6000. Data were analyzed using Graphpad Prism software and EC₅₀ values were reported.
as §5

[8] = target: T3, human BSG2 (basigin isoform 2) on the …; assay: cell-based ECL (MSD) binding on whole cells expressing human BSG2

B1: mouse anti-human BSG2 monoclonal antibody EB41-1F4-2C1 (antibody, mouse IgG1, V domains shown)
VH: EVKLEESGGGLVQPGGSMKLSCVASGFTFSNFWMDWVRQSPEKGLEWVAEIRLKSTNYATHYAESVKGRFTISRDDSKSSVYLQMNNLRAEDTGIYYCTATSTGYWGQGTTLTVSS
VL: SIVMTQSPKILLVSAGDRVTITCKASQSVSNDVAWYQQKPGQSPKLLIYYASNRYTGVPDRFTGSGYGTDFTFTISTVQAEDLAVYFCQQDYSSPYTFGGGTKLEIK
notes: Hybridoma antibody, mouse IgG1/kappa
- Kd [1]: 2.5 nM
- koff [1]: 0.001 s⁻¹
- kon [1]: 400000 M⁻¹ s⁻¹
- Kd [2]: 1600 nM
- koff [2]: 0.6 s⁻¹
- kon [2]: 377000 M⁻¹ s⁻¹
- EC50 [3]: 0.2 nM
- Kd [4]: 0.4 nM
- EC50 [5]: 0.17 nM
- EC50 [6]: 0.71 nM
- EC50 [7]: 16 nM
- EC50 [8]: 0.4 nM
